Results: article PMC3702509, “Label Free Fragment Screening Using Surface Plasmon Resonance as a Tool for Fragment Finding – Analyzing Parkin, a Difficult CNS Target” (PLoS ONE, 2013)

B1: Parkin domain R0RBR (residues 141-465) (domain or fragment, human, UniProt O60260-1 141-465, looked up)
chain: SIYNSFYVYCKGPCQRVQPGKLRVQCSTCRQATLTLTQGPSCWDDVLIPNRMSGECQSPHCPGTSAEFFFKCGAHPTSDKETSVALHLIATNSRNITCITCTDVRSPVLVFQCNSRHVICLDCFHLYCVTRLNDRQFVHDPQLGYSLPCVAGCPNSLIKELHHFRILGEEQYNRYQQYGAEECVLQMGGVLCPRPGCGAGLLPEPDQRKVTCEGGNGLGCGFAFCRECKEAYHEGECSAVFEASGTTTQAYRVDERAAEQARWEAASKETIKKTTKPCPRCHVPVEKNGGCMHMKCPQPQCRLEWCWNCGCEWNRVCMGDHWFDV
notes: Parkin residues 141-465 (NM_004562.1), R0, R1, IBR and R2 domains; Cloned into the Champion pET SUMO vector; The Sumo tag was removed with SENP1, and the protein is called untagged in the SPR methods; also called R0RBR Domain; source: E. coli BL21 DE3, purified (Ni sepharose, Mono Q, SENP1 cleavage, Superdex 200)

Assays:
Experiment in all cases: SPR; untagged R0RBR immobilised by amine coupling (10 mM acetic acid pH 5.0) on a CM5 chip; protein ligands injected; 25°C; 10 mM HEPES pH 7.4, 150 mM NaCl, 0.005% Tween-20, 4 mM reducing agent; 1:1 binding model
Settings in all cases: both partners purified
[1] = target: T1, UbcH7, E2 ubiquitin conjugating enzyme (UBE2L3 residues 1-154) (human, UniProt P68036-1 1-154)
T1 construct: UBE2L3 (UbcH7) residues 1-154 from NM_003347.2; UbcH7 was also bought from Boston Biochem. TEV cleavage probably leaves SS at the N-terminus (surmised); also called E2 UbcH7; source: E. coli BL21 DE3, purified (nickel sepharose, TEV cleavage, Superdex 200); not shown: His8, N-terminal, cleaved
T1 sequence (P68036 whole entry, the tested form may be a part): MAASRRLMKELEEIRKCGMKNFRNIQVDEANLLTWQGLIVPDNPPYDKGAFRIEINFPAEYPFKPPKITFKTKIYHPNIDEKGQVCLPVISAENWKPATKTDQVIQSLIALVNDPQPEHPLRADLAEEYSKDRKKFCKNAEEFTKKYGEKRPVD

Ubiquitin = target: T2, Ubiquitin (UniProt P0CG47 1-76)
T2 construct: ubiquitin, the cut product of a polyubiquitin or fusion precursor; neither species nor construct is stated; also called Ubq; source: bought: Boston Biochem

[2] = target: B1

Binder | Kd [1] [µM] | Kd (Ubiquitin) [µM] | Kd [2] [µM]
B1 | 7.1 | 96 | 
His-tagged ubiquitin-like domain of Parkin (UblD, residues 1-76) (domain or fragment, human, UniProt O60260-1 1-76, looked up, Parkin residues 1-76 (NM_004562.1), ubiquitin-like domain; also called His-UblD; source: E. coli BL21 DE3, purified (nickel sepharose, dialysed for Biacore); not shown: His6, C-terminal, kept) MIVFVRFNSSHGFPVEVDSDTSIFQLKEVVAKRQGVPADQLRVIFAGKELRNDWTVQNCDLDQQSIVHIVQRPWRK |  |  | 6
